According to patent US20120207771A1 (MORPHOTEK, published 2012):
Blank lines part the entries; values can stand above or below the binder they belong to.

How the values were obtained:
[1] = target: T1, folate receptor alpha (FRα), human (human, UniProt P15328 25-234); experiment: sandwich EIA, biotin-labeled detector MORAb-003, capture MOV18, row '1-S' (label not explained)
T1 construct: also called FR-alpha; FOLR-1

[2] = target: T1, folate receptor alpha (FRα), human; experiment: sandwich ECLIA on serum, 24F12 as detector (Pair 1)
Description: (§1) FRα levels in the serum of patients with ovarian cancer, patients with lung cancer, and normal controls were assessed. Serum FRα levels were assessed using ECLIA with two different pairs of capture-detector antibodies: Pair 1, in which 9F3 was the capture antibody and 24F12 was the detector antibody, and Pair 2, in which 26B3 was the capture antibody and 19D4 was the detector antibody.
(§2) The FRα pairs were tested with full calibrator curves and 196 individual serums diluted 1:4. In one experiment, 26B3 was used as the capture antibody after CR processing on a plate lot (75 μg/mL, +B, +T) and 19D4 was used as the detector antibody at 1.0 μg/mL. In another experiment, 9F3 was used as the capture antibody and 24F12 was used as the detector antibody at 1.0 μg/mL. Each were CR processed (lot 10070) with an label to protein ratio (L/P) of 13.3. Diluent 100 (Meso Scale Discovery, Gaithersburg, Md.)+human anti-mouse antibody (HAMA)+mIgG was used for samples and calibrator. Diluent 3 (Meso Scale Discovery, Gaithersburg, Md.) was used for detections.
(§3) The following protocol was employed for the ECLIA. Samples were added at 50 μL/well. The samples were shaken for 2 hours and subsequently washed with Phosphate Buffered Saline (PBS) solution with the detergent Tween 20 (PBST). […] Finally, the electrochemiluminescence (ECL) emission of the samples was read with 2×MSD® Buffer T.

[3] = target: T1, folate receptor alpha (FRα), human; experiment: sandwich ECLIA on serum, 26B3 as capture (Pair 2)
Description: as §1, §2, §3

[4] = target: T1, folate receptor alpha (FRα), human; experiment: sandwich ECLIA on serum, 19D4 as detector (Pair 2)
Description: as §1, §2, §3

[5] = target: T1, folate receptor alpha (FRα), human; experiment: sandwich ECLIA on serum, 9F3 as capture (Pair 1)
Description: as §1, §2, §3

T1 sequence (P15328 25-234 limits assumed): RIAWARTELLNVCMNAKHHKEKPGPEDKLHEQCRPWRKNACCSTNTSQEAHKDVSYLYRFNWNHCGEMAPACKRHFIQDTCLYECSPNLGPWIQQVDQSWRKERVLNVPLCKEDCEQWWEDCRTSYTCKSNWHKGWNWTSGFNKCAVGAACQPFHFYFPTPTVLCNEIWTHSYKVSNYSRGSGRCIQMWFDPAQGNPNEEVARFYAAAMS

B1: MORAb-003 antibody (antibody, human IgG1, kappa, V domains shown)
VH: EVQLVESGGGVVQPGRSLRLSCSASGFTFSGYGLSWVRQAPGKGLEWVAMISSGGSYTYYADSVKGRFAISRDNAKNTLFLQMDSLRPEDTGVYFCARHGDDPAWFAYWGQGTPVTVSS
VL: DIQLTQSPSSLSASVGDRVTITCSVSSSISSNNLHWYQQKPGKAPKPWIYGTSNLASGVPSRFSGSGSGTDYTFTISSLQPEDIATYYCQQWSSYPYMYTFGQGTKVEIKR
notes: Used labeled with ruthenium chelate (ECLIA) or biotin (EIA) as detector, or unlabeled as capture antibody
- binding result [1]: binds

B2: 24F12.B1 antibody (antibody, mouse IgG1, V domains shown)
VH: SGGGLVRPGGSLKLSCAASGFTFSSYAMSWVRQSPEKRLEWVAEIGSGGSYTYYPDTVTGRFTISRDNAKSTLYLEMSSLRSEDTAIYYCARETTAGYFDYWGQGTTLTVSS
VL: TSSLSASLGDRVTISCSASQGINNFLNWYQQKPDGTVKLLIYYTSSLHSGVPSRFSGSGSGTDYSLTISNLEPEDIAIYYCQHFSKLPWTFGGGTKLEIKR
notes: ATCC PTA-11886
- binding result [2]: binds

B3: 26B3.F2 antibody (antibody, mouse IgG1, V domains shown)
VH: GPELVKPGASVKISCKASDYSFTGYFMNWVMQSHGKSLEWIGRIFPYNGDTFYNQKFKGRATLTVDKSSSTAHMELRSLASEDSAVYFCARGTHYFDYWGQGTTLTVSS
VL: PASLSASVGETVTITCRTSENIFSYLAWYQQKQGISPQLLVYNAKTLAEGVPSRFSGSGSGTQFSLKINSLQPEDFGSYYCQHHYAFPWTFGGGSKLEIKR
notes: ATCC PTA-11885
- binding result [3]: binds

The remaining lines, values ahead:

- binding result [4]: binds
B4: 19D4.B7 antibody (antibody, mouse IgG2a, V domains shown)
VH: GAELVKPGASVKLSCTASGFNIKHPYMHWVKQRPDQGLEWIGRIDPANGNTKYDPKFQGKATITADTSSNTAYLQLSSLTSEDTAVYYCGREEVADYTMDYWGQGTSVTVSS
VL: PASLAVSLGQRATISCRASESVDTYGNNFIHWYQQKPGQPPKLLIYLASNLESGVPARFSGSGSRTDFTLTIDPVEADDAATYYCQQNNGDPWTFGGGTKLEIKR
notes: ATCC PTA-11884

- binding result [5]: binds
B5: 9F3.H9.H3.H3.B5.G2 antibody (antibody, mouse IgG2a, V domains shown)
VH: ESGPGLVRPSQSLSLTCSVTGYSITSGYYWNWIRQFPGSRLEWMGYIKSDGSNNYNPSLKNRISITRDTSKNQFFLKLNSVTTEDTATYFCTREWKAMDYWGQGTSVTVSS
VL: PAIMSASPGEKVTMTCRASSTVSYSYLHWYQQKSGASPQLWIYGTSNLASGVPARFSGSGSGTSYSLTISSVEAEDAATYYCQQYSGYPLTFGAGTKLELKR
notes: ATCC PTA-11887
